Laboratory results published in the Human Domainome abundance scans (Beltran et al. 2025).

B1: Homeobox protein SIX6, residues 134 to 184; numbered along this chain, O95475 (parent)
chain: CFKERTRHLLREWYLQDPYPNPSKKRELAQATGLTPTQVGNWFKNRRQRDR
B2: Intersectin-2, residues 1129 to 1183; numbered along this chain, Q9NZM3 (parent)
chain: VCQVIAMYDYAANNEDELSFSKGQLINVMNKDDPDWWQGEINGVTGLFPSNYVKM

Variants of: B1
Test: abundance fitness (aPCA) (normalised: wild type 0, dead -1); higher = more abundant; growth selection in yeast, the domain comes from the species named
Conditions: Homo sapiens

Abundance fitness, by site and new letter:
R47: C -0.662, T -0.825, K -0.861, Y -0.637, W -0.425, F -0.501, N -0.613, D -0.84, I -1.01, H -0.762, V -0.756, S -0.845, M -0.786, A -0.635, G -0.762, L -0.633
Q48: Y 0.226, H 0.11, L -0.522, K 0.266, W -0.079, G -0.237, N 0.04, A -0.315, P -0.795, V -0.315, M -0.169, R 0.515, F -0.526, C -0.125, I -0.035, T -0.411, D -0.221, S -0.092
D50: K -0.474, R -0.777, P -0.862, T -0.153, C -0.73, Y -0.878, E -0.26, S -0.312, F -0.585, M -0.417, W -0.592, H -0.605, Q -0.189, N -0.693, V -0.881, A -0.383, G -0.607, L -1.1, I -0.995
R51: S -0.646, W -0.832, K -0.133, D -0.25, V -0.545, A -0.353, L -0.431, E -0.094, C -0.691, M -0.499, T -0.529
R49: L -0.277, D -0.074, E 0.049, C -0.376, G -0.357, H -0.889, S -0.334, N -0.287, K -0.203, I -0.482, W -0.594, A -0.278, F -0.238, Q 0.143, T -0.213, M -0.489, V -0.503
R46: D -0.728, W -0.501, S -0.165, L -0.604, Q 0.11, Y -0.505, V -0.465, M -0.344, C -0.203, I -0.845, H -0.72, F -0.522, N -0.037, T -0.055, E 0.062, K -0.151

Variants of: B2
Test: as above
Conditions: Homo sapiens

Abundance fitness: each site, then its substitutions
Y10: H -0.124, K -0.144, Q -0.505, N -0.249, D -0.777, P -0.913, F -0.084, G -0.761, E -0.853, V -0.455, M -0.256, I -0.494, A -0.66, T -0.865, R -0.063, S -0.427, W -0.037
A6: L -1.02, R -0.883, N -0.928, T 0.026, Y -0.927, P -0.585, F -1.03, I -0.988, H -0.923, V -0.576, G -0.163, D -0.93, W -1.02, C -0.154, S -0.057, Q -0.966
C2: Y 0.022, W -0.122, I -0.116, N 0.147, M -0.13, F 0.023, T -0.126, A -0.116, Q -0.107, G -0.099, D -0.041, L -0.223, E -0.3, P -0.108, S -0.006
V4: N -0.688, Q -0.349, R -0.458, I -0.478, W -0.079, H -0.205, L -0.297, G -0.041, A -0.027, F -0.004, E -0.405, K -0.62, S -0.064, D -0.511, T -0.079, Y 0.032
N14: I -0.092, R 0.007, Q -0.01, E -0.044, A -0.038, S 0.014, D -0.089, F -0.08, C -0.027, G -0.024, M -0.016, P -0.535, H 0.02
I5: L -0.132, F -0.022, T 0.023, Q -0.085, K -0.173, H -0.188, C -0.077, R -0.147, P -0.531, A -0.121, E -0.062, Y -0.062, M -0.144, W -0.056, D -0.164, G -0.457, N -0.186, S -0.134, V -0.015
D9: N -0.039, A 0.019, T -0.084, Q -0.133, W -0.383, L -0.571, V -0.38, G -0.061, I -0.594, C -0.189, P -0.098, F -0.364, S -0.069, R -0.131, Y -0.371, H -0.025, M -0.177, E -0.117, K -0.189
M7: E -0.057, D 0.007, Q -0.049, N -0.088, I 0.002, F -0.168, Y -0.036, G -0.081, C -0.02, S 0.029, A -0.078, W -0.188, K -0.139, P -0.897, R -0.115, V -0.065
N13: F -0.092, H 0.106, S 0.014, P -0.133, I -0.071, W -0.306, Q 0.051, K 0.042, Y -0.141, G 0.031, V -0.003, L 0.01, A -0.024, D -0.033, C -0.047, R 0.038, E -0.017, M -0.014, T 0.011
Q3: E 0.081, M -0.053, A -0.07, R -0.13, K 0.002, C -0.066, T -0.047, S 0.012, V -0.042, I -0.006, F 0.027, D -0.19, P -0.116, W -0.076, Y -0.029, N -0.169, L -0.134
A12: Q -0.046, D -0.503, W -0.685, F -0.663, L -0.578, P -0.144, Y -0.455, T -0.038, E -0.172, K -0.012, G -0.068, M -0.129, I -0.469, N 0.052, S -0.056, H -0.221, V -0.334, C -0.115
V1: Y -0.453, L -0.206, S -0.21, F 0.04, M -0.178, P -0.652, E -0.054, R -0.228, W -0.391, I 0.077, A -0.27, T 0.107, C -0.307, N -0.247, D -0.043, K 0.089
A11: Y -0.111, Q -0.003, N -0.016, E 0.025, S -0.007, V -0.072, K 0.013, C -0.048, M -0.053, D 0.007, H 0.042, G -0.03, R -0.01, F -0.055, T -0.041, L -0.064, W -0.117, P -0.069
Y8: E -0.002, L -0.005, W -0.052, H -0.162, D -0.197, V -0.045, K 0.074, C -0.011, N 0.011, Q -0.084, A -0.002, G -0.063, T -0.122, S 0.001, R 0.012, F 0.09, M -0.011, P -0.787
